{"source": "patent US20180086841A1", "about": "(Merck Sharp & Dohme, published 2018)", "binders": {"B1": {"name": "hCD27.131A (mouse parental 131A) (antibody, mouse IgG1, V domains shown)", "VH": "QIQLVQSGPELKKPGETVKISCKASGYTFTNYGMNWVKQAPGKGLKWMGWINTNTGEPTYAEEFKGRFAFSLETSATTAYLQINNLKNEDTATYFCAREGDAMDYWGQGTSVTVSS", "VL": "QIVLTQSPAIMSASPGEKVTMTCSASSSVSYMHWYQQKSGTSPKRWIYDTSKLASGVPARFSGSGSGTSYSLTISSMEAEDAATYYCQQWNSYPFTFGSGTKLEIK", "notes": "Mouse IgG1 antibody; also called mouse hCD27.131A"}}, "assay_in_all_cases": "flow cytometry on CHO-K1 transfectants, left sub-column", "key": {"[1]": {"target": "T1, Q15A", "T1 construct": "also called hCD27 Q15A", "T1 receptor chain": "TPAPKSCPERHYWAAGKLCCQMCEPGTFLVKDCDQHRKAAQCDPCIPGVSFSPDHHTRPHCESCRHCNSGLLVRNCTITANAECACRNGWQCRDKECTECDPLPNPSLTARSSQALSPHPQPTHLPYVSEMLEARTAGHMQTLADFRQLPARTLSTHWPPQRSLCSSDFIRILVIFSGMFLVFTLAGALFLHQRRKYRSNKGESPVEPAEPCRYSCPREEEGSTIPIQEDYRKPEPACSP", "protocol": "(§1) The hCD27 variants that were tested are listed. Amino acids correspond to the UniProt P26842-1 sequence. Amino acids 1-20 constitute the signal peptide. Binding is expressed as the geometric mean of the FITC signal, relative to antibody binding to hCD27, which was set at 100%.\n(§2) The ability of several anti-hCD27 antibodies to bind to a series of hCD27 alanine mutants was determined using CHO-K1 cells, transiently transfected pCI-neo empty vector, pCI-neo.hCD27 and several pCI-neo.CD27Ala mutant constructs.\n(§3) Detached cells were transferred to 96 wells round-bottomed well plates at approximately 1.2×10⁵ cells/well. After spinning down the cells, discarding the supernatants and re-suspending the cells in the residual volume, the primary antibodies were added and incubated for 30 minutes at 4° C. Cells were washed three times with DPBS/BSA 1%, followed by centrifugation, discarding of the supernatants and re-suspension in the residual volume. […] After washing once, antibody binding was detected using the HTS plate reader (FACS Canto II) and FlowJo software for data analysis. Debris, dead cells and doublets were excluded from the analysis. Binding was expressed as the geometric mean of the FITC signal, relative to antibody binding to hCD27, which was set at 100%."}, "[2]": {"target": "T2, V30A", "T2 construct": "also called hCD27 V30A", "T2 receptor chain": "T1 receptor chain with A15Q, V30A", "protocol": "as §1, §2, §3"}, "[3]": {"target": "T3, D32A", "T3 construct": "also called hCD27 D32A", "T3 receptor chain": "T1 receptor chain with A15Q, D32A", "protocol": "as §1, §2, §3"}, "[4]": {"target": "T4, Q41A", "T4 construct": "also called hCD27 Q41A", "T4 receptor chain": "T1 receptor chain with A15Q, Q41A", "protocol": "as §1, §2, §3"}, "[5]": {"target": "T5, D43A", "T5 construct": "also called hCD27 D43A", "T5 receptor chain": "T1 receptor chain with A15Q, D43A", "protocol": "as §1, §2, §3"}, "[6]": {"target": "T6, P44A", "T6 construct": "also called hCD27 P44A", "T6 receptor chain": "T1 receptor chain with A15Q, P44A", "protocol": "as §1, §2, §3"}, "[7]": {"target": "T7, R87A", "T7 construct": "also called hCD27 R87A", "T7 receptor chain": "T1 receptor chain with A15Q, R87A", "protocol": "as §1, §2, §3"}, "[8]": {"target": "T8, W90A", "T8 construct": "also called hCD27 W90A", "T8 receptor chain": "T1 receptor chain with A15Q, W90A", "protocol": "as §1, §2, §3"}, "[9]": {"target": "T9, R10A", "T9 construct": "also called hCD27 R10A", "T9 receptor chain": "T1 receptor chain with R10A, A15Q", "protocol": "as §1, §2, §3"}, "[10]": {"target": "T10, W13A", "T10 construct": "also called hCD27 W13A", "T10 receptor chain": "T1 receptor chain with W13A, A15Q", "protocol": "as §1, §2, §3"}}, "note": "Changes are numbered by the printed parent chain.", "data": [{"binder": "B1", "values": [{"measurement": "binding, WT hCD27 = 100 (GM FITC)", "setting": "[1]", "result": 99.6, "unit": "%"}, {"measurement": "binding, WT hCD27 = 100 (GM FITC)", "setting": "[2]", "result": 170, "unit": "%"}, {"measurement": "binding, WT hCD27 = 100 (GM FITC)", "setting": "[3]", "result": 113, "unit": "%"}, {"measurement": "binding, WT hCD27 = 100 (GM FITC)", "setting": "[4]", "result": 108, "unit": "%"}, {"measurement": "binding, WT hCD27 = 100 (GM FITC)", "setting": "[5]", "result": 194, "unit": "%"}, {"measurement": "binding, WT hCD27 = 100 (GM FITC)", "setting": "[6]", "result": 158, "unit": "%"}, {"measurement": "binding, WT hCD27 = 100 (GM FITC)", "setting": "[7]", "result": 153, "unit": "%"}, {"measurement": "binding, WT hCD27 = 100 (GM FITC)", "setting": "[8]", "result": 126, "unit": "%"}, {"measurement": "binding, WT hCD27 = 100 (GM FITC)", "setting": "[9]", "result": 103, "unit": "%"}, {"measurement": "binding, WT hCD27 = 100 (GM FITC)", "setting": "[10]", "result": 86, "unit": "%"}]}]}
